Paper PMC12748774 (Nature Communications, 2025)

B1: OZ-D4_GL (germline-reverted OZ-D4, IgG1) (antibody, V domains shown)
VH: QVQLQESGPGLVKPSETLSLTCTVSGGSISSYYWSWIRQPPGKGLEWIGYIYYSGSTNYNPSLKSRVTISVDTSKNQFSLKLSSVTAADTAVYYCARYSSGWSFSFDIWGQGTRVTVSS
VL: QSALTQPASVSGSPGQSITISCTGTSSDVGSYNLVSWYQQHPGKAPKLMIYEGSKRPSGVSNRFSGSKSGNTASLTISGLQAEDEADYYCCSYAGSSTLVFGGGTKLTVL
B2: SMZAb2 Fab (Fab, V domains shown)
VH: EVQLVQSGAEVKKPGSSVKVSCKAPGGTFSSYAMSWVRQAPGQGPEWVGGIVPVYGTSRYAQKFQGRGTITADESTSTVYLELSSLRSEDTALYYCARVRYYGSGTYYGGDAFDFWGQGTMVTVSS
VL: QTVVTQEPSFSVSPGGTVTLTCGLTSDSVSIHLYPSWYQQTPGQAPRALIYNTNTRSSGVPDRFSGSILGNKAALTITGAQADDESVYFCVVYMGSGIWVFGGGTKLTVL
notes: also called Fabs; source: 293F cells, co-transfected, purified (cOmplete His-Tag Purification Resin)

What was measured:
[1] = biological target: ZIKV WT sE (recombinant soluble ectodomain of Zika virus envelope E protein, wild type) (Zika virus, Brazilian strain SPH2015 …, UniProt A0A0U3FSM8); assay: BLI; details: both partners purified
[2] = biological target: T1, ZIKV CC_FLE sE (G5C/G102C), disulfide-linked dimer (Zika virus (Brazilian Zika SPH2015 …)); assay: cryo-EM structure; details: both partners purified
T1 construct: source: Drosophila Schneider S2 cells, purified (His-tag column, SEC)

| Binder | binding result [1] | stoichiometry N [2] |
| --- | --- | --- |
| B1 | no binding (tested: 250 nM) | – |
| B2 | – | 2 |
